± gives the standard deviation of the averaged measurements.
Tested on: Saccharomyces cerevisiae
Assay: protein stability index of tFT-peptide fusion (C-terminal peptide) (PSI (0-1 scale)); higher = more stable (slower turnover)
Settings: genetic background: wild type; temperature: 30 C
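Also: PSI is a weighted mean of sequencing reads over stability bins, variants kept only with over 10 reads, mCherry proximal and sfGFP distal, peptide attached via GGGS linker.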

Sequence	protein stability index
RFSDGSHLFGDR	0.524 ± 0.14
TRQGDLYYYLYV	0.67 ± 0.024
CDTIPNPLYKYD	0.75 ± 0.055
VGWFELWGVSSG	0.76 ± 0.052
AAPDLARPPLLR	0.685 ± 0.018
SLYYPRLVSSSL	0.732 ± 0.11
LWVGVVGRVRGV	0.6609 ± 0.0062
SAFLSFPFLSPF	0.705 ± 0.011
IALACPGGSYIV	0.6739 ± 0.0024
YPPPPPLAPPRP	0.747 ± 0.14
GFTHAPTVPSPE	0.745 ± 0.017
QIYRMKNRYNKS	0.7 ± 0.038
GWCRVFLNFLMW	0.61142 ± 0.00012
RWAQVAEGGEGR	0.732 ± 0.099
GSTRWGSAEGRG	0.662 ± 0.21
RLRSSTAAAAIV	0.713 ± 0.082
PPPPPAPPPLCY	0.663 ± 0.045
NDGKTKRVKKRR	0.619 ± 0.065
IFYCPPVPTFPL	0.697 ± 0.024
LWQGGRAFWQPV	0.679 ± 0.046
EKKIDPTVKEGK	0.663 ± 0.0094
ACIWRCFDAAMG	0.632 ± 0.019
GSDMRADGRIER	0.673 ± 0.039
KEEAQKMKKIGE	0.752 ± 0.096
HSTESHHQLDNQ	0.649 ± 0.026
CFGSRDSSFGHT	0.763 ± 0.13

Sequence	protein stability index
GRCLRITMACYI	0.646 ± 0.035
KGRGKRRGARAT	0.73 ± 0.053
VKKSTPIKKPQT	0.651 ± 0.062
GVLVESGSVESR	0.744 ± 0.12
KLDDEVLFKRNI	0.692 ± 0.057
RQTNEHNNQNER	0.741 ± 0.082
LPVSPDTLSPPL	0.678 ± 0.022
SDCWGAIIGCSG	0.677 ± 0.027
RSLRLPPRTPLP	0.652 ± 0.04
GCFARSEKLSGL	0.687 ± 0.1
KGINALICTGSI	0.6601 ± 0.0043
SAPAFPPRPPPT	0.675 ± 0.025
TRGSLIFACSVF	0.576 ± 0.033
CAAYIQNLPFPF	0.727 ± 0.019
PPAPSPPVPPQL	0.727 ± 0.026
VNHVVRFFFSSH	0.676 ± 0.019
RKCDKVGCDEKA	0.66 ± 0.02
RESIEGGGAPRD	0.747 ± 0.11
LLPPCYFFLTSP	0.637 ± 0.093
FSKDDFEVTPNS	0.819 ± 0.079
RCPQHCDLSVYV	0.681 ± 0.021
WVVGGVRGVWGA	0.729 ± 0.011
KSGEHSCCRSAD	0.602 ± 0.038
LWCDPVLVLELR	0.776 ± 0.072
FRGRSSLSTSCG	0.69 ± 0.023
LMDIPGNPRSLY	0.604 ± 0.072

Sequence	protein stability index
SFPLLFPVSSRL	0.8641 ± 0.0077
CMCFFMGGWWCV	0.608 ± 0.0067
RCTNSLPSYLSH	0.675 ± 0.039
LGPDSCRLPLAQ	0.746 ± 0.067
HLGHPSSRPSCL	0.72 ± 0.057
AVCWGGSVGGVG	0.69898 ± 0.00012
VAYRGGGGWRIS	0.6865 ± 0.005
PSTSCQRLLTLT	0.639 ± 0.018
RYRGPIPHEHTC	0.652 ± 0.085
KGRNYVGRIRNN	0.509 ± 0.024
GRGGWPPWFKHK	0.712 ± 0.033
PTRPPRPRAGPR	0.742 ± 0.0077
PPPPPPPPFSHS	0.712 ± 0.022
WGVSGAGPHLLL	0.74 ± 0.038
PRGGLGTGWGRR	0.731 ± 0.079
DLKIKKNDKKKK	0.658 ± 0.0086
GEAEGGEEYGEG	0.636 ± 0.017
PCGTPHVRPLAT	0.719 ± 0.025
QTGQVSRVSPHD	0.672 ± 0.031
FPVPPFFLSGHL	0.651 ± 0.11
KKWKKKNNKRNG	0.707 ± 0.17
GGGGGGGGGGGV	0.709 ± 0.053
PPPPPPLPAPPH	0.693 ± 0.029
SEVISMSDDLGR	0.633 ± 0.087
FPRFACVLPAFH	0.671 ± 0.081
NRGKDEIMKRDK	0.671 ± 0.066

Sequence	protein stability index
GVQEGGGGARGG	0.633 ± 0.023
YSCLGFELWGKG	0.632 ± 0.067
LETVWRFECGWG	0.7759 ± 0.0048
PPHTSPLSPRPP	0.658 ± 0.052
LTHQENNIWVSR	0.703 ± 0.057
LLPPPPLPPLPL	0.796 ± 0.1
GLCVLVASCGRG	0.664 ± 0.15
ENERRESLTMVR	0.786 ± 0.1
GVEGLGAFVTVQ	0.702 ± 0.0089
KTDSEPNKRIHK	0.707 ± 0.09
CGVCSAGIFVGG	0.761 ± 0.026
YTDVWLPARGSG	0.689 ± 0.056
PRPHRLPPRPFH	0.6917 ± 0.0064
PFPSLCFPPLNG	0.727 ± 0.055
LTYLLFPSSLQA	0.677 ± 0.04
SVVLIQVVSKPT	0.58 ± 0.015
VGLGGTGGESRY	0.706 ± 0.027
LSPIPLPPPLTS	0.699 ± 0.044
PLHRPLPRPPSP	0.745 ± 0.019
FIFPPLFFSPVL	0.788 ± 0.13
LETVPVPPPPSA	0.747 ± 0.057
GVLGCNDGSVVE	0.663 ± 0.059
LPPLPHLLSLYL	0.658 ± 0.076
PGPPYPPPPLHP	0.716 ± 0.008
PTPPPALPPPPL	0.6994 ± 0.0054
PSRRHGFRLILT	0.679 ± 0.019

Sequence	protein stability index
LGALTPSIAGGP	0.64 ± 0.01
IPLLEALLQLAA	0.562 ± 0.014
SCSGVHYLGSSL	0.679 ± 0.023
KKNKKKKKRARY	0.707 ± 0.038
YKNDNDKCIQMR	0.678 ± 0.011
DLEDPAETPNIF	0.72 ± 0.033
GPCRICNERSLI	0.613 ± 0.0062
GGWHVVGGEGVG	0.524 ± 0.0082
LYPRPSRFPPLL	0.732 ± 0.087
SNFRDISLHAAG	0.684 ± 0.042
RGLYQCFLLDIV	0.472 ± 0.047
AGGGAAGPAGWV	0.6728 ± 0.0036
GGGGSRGRVGDI	0.7182 ± 0.0022
VVWSGWGCGGVR	0.619 ± 0.015
TLCFSFPVPGFL	0.723 ± 0.1
PRRVGRLGAPMG	0.719 ± 0.11
KTQNVNDQGEET	0.644 ± 0.062
QKPVQGICQEAN	0.628 ± 0.035
PLSPNIHQRPPA	0.75 ± 0.0096
QDHIGSTEGYKH	0.663 ± 0.074
SLIFVSLLGAYD	0.623 ± 0.056
GWQLWGFCLSGP	0.637 ± 0.032
PLPVLFFFSACS	0.661 ± 0.043
RLPRSPPLPSCR	0.726 ± 0.016
ILSCLLRSSFQC	0.606 ± 0.045
QGTCSQSIEAHF	0.706 ± 0.14

Sequence	protein stability index
CRGPRASRRRGR	0.629 ± 0.04
FTSRGLLILGFM	0.619 ± 0.008
CSSSALADLLPW	0.6537 ± 0.0022
GKGTRGTRRGGK	0.632 ± 0.024
KKKKIEEKKDCK	0.715 ± 0.023
CISPPRHAPPPP	0.637 ± 0.092
GPSPFHPPPPER	0.554 ± 0.0094
FVFQYVVGNFAI	0.617 ± 0.051
TQSNRKPLECPS	0.679 ± 0.066
GLSSFIGRRGRR	0.713 ± 0.013
PPPPPLSLLLPP	0.703 ± 0.032
PAPPSPPPHSSP	0.751 ± 0.063
QKEGGRENETRT	0.6906 ± 0.0053
LCSTSLTPMRPT	0.699 ± 0.021
PPLPPPPLLPAP	0.726 ± 0.019
LPPSPPPPPRQS	0.739 ± 0.013
WWGAKLDGKVSE	0.813 ± 0.0089
GLCRGHMSTMVD	0.641 ± 0.064
YHARPQALPSRP	0.658 ± 0.055
QHIKNARKKKGE	0.657 ± 0.0073
EGIDFVDQRLLS	0.663 ± 0.005
KSQKKKKKNKNF	0.57 ± 0.044
VDGLRASRFVGS	0.7 ± 0.048
LFPAGSSLCGAI	0.753 ± 0.061
RTLWGYCPRSPL	0.718 ± 0.021
GGGGMASRGGNK	0.685 ± 0.027

Sequence	protein stability index
FLFLFGCSPFFG	0.727 ± 0.057
PPCPVTSFRPSI	0.755 ± 0.05
GLGLASWGDLEL	0.739 ± 0.039
KKENKQEKKNMI	0.709 ± 0.016
VVLCAALHRTYG	0.638 ± 0.012
FRPFLPPSRTFS	0.676 ± 0.008
SFPLSPPSLPSL	0.781 ± 0.1
LPSLASPRLIPS	0.609 ± 0.0066
CLSGLIIMPSVG	0.675 ± 0.035
GGGVSFWVGVVA	0.656 ± 0.042
PPLPPPTPRPAP	0.754 ± 0.058
SRFRKSSGLLLK	0.758 ± 0.09
IGGAMLSPLKVR	0.55 ± 0.021
MERAGTAEGGGA	0.655 ± 0.008
VYSVDGGKTVLD	0.669 ± 0.028
KKKKKQRMKRNG	0.674 ± 0.049
GGVAADGGGGRG	0.675 ± 0.043
RRVVIVSGWGWG	0.591 ± 0.064
FVVGGGLRMGAG	0.62253 ± 0.00043
KIKKNKKKKRIN	0.658 ± 0.026
SRPLFLSLFSSV	0.599 ± 0.14
AQYSTPSPMGQT	0.671 ± 0.044
SNIDIEAELNKT	0.728 ± 0.031
LLLRSSPVSLSR	0.7162 ± 0.0034
SRLYGHDLRCRL	0.777 ± 0.091
VGRGGPGVGGSW	0.736 ± 0.043

Sequence	protein stability index
PLPRLPLLPPLR	0.67 ± 0.045
RVWNRHWMGASS	0.776 ± 0.084
WVMREIVFGSLY	0.698 ± 0.017
FLLIFHSSPLPV	0.574 ± 0.05
LPLPGSFTLNYP	0.733 ± 0.013
PPPSPPLPRHLA	0.746 ± 0.06
VRWIEYDVKGWA	0.71 ± 0.011
RTAYLLRCLTTD	0.681 ± 0.026
VWFEAGLGWFFL	0.721 ± 0.047
VGGGVGVPGVLG	0.672 ± 0.012
WQNKKDNGKIRG	0.724 ± 0.11
GRSASDTRGLGL	0.672 ± 0.13
SAGYFYSWNSSD	0.708 ± 0.028
VCLGGWCMWGWR	0.585 ± 0.017
KKKKKKKKKKKN	0.595 ± 0.034
GSFLGTSFKSEY	0.666 ± 0.029
GLQPVGLYPFQL	0.668 ± 0.008
RGPARFYVRVSV	0.498 ± 0.0077
RRCRPPTRRTKE	0.587 ± 0.053
WCAGLATAIQLR	0.636 ± 0.053

— the supplement of paper PMC10724198
